According to PMC7515702:

What was measured:
Assay in all cases: fluorescence polarization
Conditions in all cases: no NAD+, 250 mM NaCl; Kd: 5 nM probe, 12 mM HEPES pH 8.0, 250 mM NaCl, 4% glycerol, 5.7 mM beta-mercaptoethanol, 0.05 mg/ml BSA, 30 min RT. Competition: 40 nM PARP1, 20 nM probe …
PARP1 H862D H862D = PARP1 H862D H862D (UniProt P09874)
PARP1 H862A H862A = PARP1 H862A H862A (UniProt P09874)
PARP1 E988K E988K = PARP1 E988K E988K (UniProt P09874)
PARP1 WT = PARP1 WT (UniProt P09874)
PARP1 WT, sequence (P09874 whole entry): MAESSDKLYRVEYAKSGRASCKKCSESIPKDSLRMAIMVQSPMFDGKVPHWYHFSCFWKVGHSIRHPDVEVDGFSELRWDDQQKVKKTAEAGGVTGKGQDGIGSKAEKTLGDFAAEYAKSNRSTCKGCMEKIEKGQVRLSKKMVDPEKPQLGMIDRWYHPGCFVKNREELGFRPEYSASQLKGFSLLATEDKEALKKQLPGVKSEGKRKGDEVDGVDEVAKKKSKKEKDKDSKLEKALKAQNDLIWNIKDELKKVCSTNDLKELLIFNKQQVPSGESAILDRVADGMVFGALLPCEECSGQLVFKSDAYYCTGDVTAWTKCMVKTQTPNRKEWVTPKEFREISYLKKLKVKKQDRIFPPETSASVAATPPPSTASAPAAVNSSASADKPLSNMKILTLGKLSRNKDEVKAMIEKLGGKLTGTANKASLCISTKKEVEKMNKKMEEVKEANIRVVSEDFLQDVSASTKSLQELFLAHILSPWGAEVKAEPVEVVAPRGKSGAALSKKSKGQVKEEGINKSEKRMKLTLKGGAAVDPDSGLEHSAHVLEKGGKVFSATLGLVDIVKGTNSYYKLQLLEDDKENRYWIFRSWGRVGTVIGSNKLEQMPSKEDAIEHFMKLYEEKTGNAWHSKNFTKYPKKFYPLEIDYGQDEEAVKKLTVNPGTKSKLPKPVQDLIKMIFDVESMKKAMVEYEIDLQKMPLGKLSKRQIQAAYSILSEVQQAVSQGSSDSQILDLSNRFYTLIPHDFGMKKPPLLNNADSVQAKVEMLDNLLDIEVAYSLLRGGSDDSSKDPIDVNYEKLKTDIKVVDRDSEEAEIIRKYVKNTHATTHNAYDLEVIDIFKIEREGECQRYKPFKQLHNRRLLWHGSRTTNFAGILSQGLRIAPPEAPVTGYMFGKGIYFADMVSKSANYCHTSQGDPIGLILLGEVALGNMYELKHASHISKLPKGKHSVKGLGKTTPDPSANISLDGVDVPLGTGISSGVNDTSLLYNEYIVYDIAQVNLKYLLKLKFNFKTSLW

PARP1 H862A H862A, sequence (P09874 whole entry H862A): as the sequence (P09874 whole entry) above, with H862A counted along it
PARP1 H862D H862D, sequence (P09874 whole entry H862D): as the sequence (P09874 whole entry) above, with H862D counted along it
PARP1 E988K E988K, sequence (P09874 whole entry E988K): as the sequence (P09874 whole entry) above, with E988K counted along it

GCTGAGCTTCTGGTGAAGCTCAGCTCGCGGCAGCTGGTGCTGCCGCGA [nicked dumbbell DNA (SSB probe)]
Kd (PARP1 H862D H862D): 11.2 nM | Kd (PARP1 H862A H862A): 176 nM | Kd (PARP1 E988K E988K): 7.4 nM | Kd (PARP1 WT): 122 nM
